Source: patent US20240043507A1 (RQ BIOTECHNOLOGY, published 2024)
“And” between values parts separate entries of the source, which are not always exact repeats. Equal values may be shown once.

Experiments:
[1] = target: T1, SARS-CoV-2 spike protein on authentic virus, strain SARS-CoV-2/human/AUS/VIC01/2020 (Victoria) (SARS-CoV-2, UniProt P0DTC2 14-1273); experiment: whole-virus capture ELISA, half-maximal binding
T1 construct: whole, on cells

[2] = target: spike protein of SARS-CoV-2 strain Victoria (SARS-CoV-2/human/AUS/VIC01/2020) (SARS-CoV-2, UniProt P0DTC2 14-1273); experiment: cell-based or functional assay
[3] = target: spike protein of SARS-CoV-2 strain B.1.1.7 (SARS-CoV-2, UniProt P0DTC2 14-1273); experiment: cell-based or functional assay
[4] = target: spike protein of SARS-CoV-2 strain P.1 (SARS-CoV-2, UniProt P0DTC2 14-1273); experiment: cell-based or functional assay
[5] = target: spike protein of SARS-CoV-2 strain B.1.351 (SARS-CoV-2, UniProt P0DTC2 14-1273); experiment: cell-based or functional assay
[6] = target: T2, SARS-CoV-2 receptor binding domain with N501Y (SARS-CoV-2, UniProt P0DTC2 330-532); experiment: BLI, RBD immobilised on AR2G biosensor, 1:1 fit
T2 construct: range 330-532; also called RBD-N501Y; RBD N501Y

[7] = target: T1, SARS-CoV-2 spike protein on authentic …; experiment: calculated from whole-virus ELISA binding and FRNT50
[8] = target: T1, SARS-CoV-2 spike protein on authentic …; experiment: cell-based or functional assay

Row | Binder | IC50 (FRNT neutralisation) [2] | IC50 (FRNT neutralisation) [3] | IC50 (FRNT neutralisation) [4] | IC50 (FRNT neutralisation) [5] | Kd [6] | further results
1 | Fab of antibody 159 (Fab, V domains shown) VH: EVQLVESGGGVVQPGRSLRLSCAASGFTFSSYGMHWVRQAPGKGLEWVALISYDGGNRYYADSVKGRFTISRDNSKNTLYLQMNRLRAEDTAMYYCAKDRDDGWDWYYFMDVWGKGTTVTVSS VL: DIQLTQSPGTLSLSPGERATLSCRASQSISGNYLAWYQHKPGQAPRLLIYGASTRATGIPDRFSGSGSGTDFTLTISRLEPEDFAVYYCQQYGSSYTFGQGTKVEIK | – | – | – | – | – | Kd [1]: 0.29 nM
2 | antibody 269 (antibody, V domains shown, also called mAb 269) VH: QVQLVESGGGLIQPGGSLRLSCAASGLTVNRNYMSWIRQAPGKGLEWVSVIYSGGSTFYADSVKGRFTISRDNSKNTLSLQMNSLRAEDTAIYYCARDFYEGSFDIWGQGTMVTVSS VL: AIQLTQSPSFLSASIGDRVTITCRASQGISSYLAWYQQKPGKAPKLLIYAASTLQSGVPSRFSGSGSGTEFTLTISSLQPEDFASYYCQQLNSYPAPVFGPGTKVDIK | 0.03 µg/mL | > 10 µg/mL | > 10 µg/mL | > 10 µg/mL | – | –
3 | Fab of antibody 269 (Fab, V domains shown, also called 269 Fab; COVOX-269) VH: QVQLVESGGGLIQPGGSLRLSCAASGLTVNRNYMSWIRQAPGKGLEWVSVIYSGGSTFYADSVKGRFTISRDNSKNTLSLQMNSLRAEDTAIYYCARDFYEGSFDIWGQGTMVTVSS VL: AIQLTQSPSFLSASIGDRVTITCRASQGISSYLAWYQQKPGKAPKLLIYAASTLQSGVPSRFSGSGSGTEFTLTISSLQPEDFASYYCQQLNSYPAPVFGPGTKVDIK | – | – | – | – | 45.4 nM | –
4 | antibody 170 (antibody, V domains shown) VH: QVQLVESGAEVKKPGESLKISCKGSGYSFTSYWIVWVRQMPGKGLEWMGIIYPGDSDTKYSPSFQGQVSISADKPISTAYLQWSRLKASDTAMYYCARLGNWLVDYWGQGTLVTVSS VL: DIVMTQSPLSLSVTPGQPASISCKSSQSLLHSDGKTYLYWYLQKPGQPPQLLMYEVSNRFSGVPDRFSGSGSGTDFTLKISRVESEDVGVYYCMQSIQLPRGITFGQGTRLEIK | 0.025 µg/mL | 0.105 µg/mL | > 10 µg/mL | > 10 µg/mL | – | FRNT50 ratio B.1.1.7/Victoria [3]: 4.2; FRNT50 ratio P.1/Victoria [4]: > 402; FRNT50 ratio B.1.351/Victoria [5]: > 402
5 | antibody 316 (antibody, V domains shown) VH: not shown VL: QAVLTQPPSASGSPGQSVTISCTGTSSDVGGYNYVSWYQQHPGKAPKLMIYEVSKRPSGVPDRFSGSKSGNTASLTVSGLQAEDEADYYCSSYAGSNHWVFGGGTKLTVL | 0.018 µg/mL | 0.024 µg/mL | > 10 µg/mL | > 10 µg/mL | – | –
6 | antibody 398 (antibody, V domains shown, also called mAb 398) VH: QVQLVESGGGLVQPGGSLRLSCAASGFTVSSNYMTWVRQAPGKGLEWVSVIYSGGSTYYADSVKGRFTISRDNSKNTLYLQMNSLRADDTAVYYCARDSTADYDFWSGYYVGAFHIWGQGTMVTVSS VL: QTVLTQPASVSGSPGQSITISCTGTSSDVGGYNYVSWYQQHPGKAPKLMIYEVTKRPSGVPDRFSGSKSGNTASLTVSGLQAEDEADYYCSSYAGSNNWVFGGGTKLTVL | 0.091 µg/mL | 0.18 µg/mL | > 10 µg/mL | > 10 µg/mL | – | –
7 | Fab of antibody 398 (Fab, V domains shown) VH: QVQLVESGGGLVQPGGSLRLSCAASGFTVSSNYMTWVRQAPGKGLEWVSVIYSGGSTYYADSVKGRFTISRDNSKNTLYLQMNSLRADDTAVYYCARDSTADYDFWSGYYVGAFHIWGQGTMVTVSS VL: QTVLTQPASVSGSPGQSITISCTGTSSDVGGYNYVSWYQQHPGKAPKLMIYEVTKRPSGVPDRFSGSKSGNTASLTVSGLQAEDEADYYCSSYAGSNNWVFGGGTKLTVL | – | – | – | – | 1.18 nM | –
8 | antibody 281 (antibody, V domains shown) VH: QVQLVESGGGLVQPGGSLRLSCAASGFPFSIYWMSWVRQAPGKGLEWVANIKQDGSEKYYVDSVKGRFTISRDNAKNSLYLHMNSLRGEDTAVYYCASRYYDFRPEAWFDYWGQGTLVTVSS VL: not shown | 0.005 µg/mL | 0.012 µg/mL | > 10 µg/mL | > 10 µg/mL | – | –
9 | Fab of antibody 281 (Fab, V domains shown) VH: QVQLVESGGGLVQPGGSLRLSCAASGFPFSIYWMSWVRQAPGKGLEWVANIKQDGSEKYYVDSVKGRFTISRDNAKNSLYLHMNSLRGEDTAVYYCASRYYDFRPEAWFDYWGQGTLVTVSS VL: not shown | – | – | – | – | 4.05 nM | –
10 | antibody 222 (antibody, V domains shown) VH: EVQLVESGGGLIQPGGSLRLSCAASGLTVSSNYMSWVRQAPGKGLEWVSVIYSGGSTFYADSVKGRFTISRDNSKNTLYLQMNSLGAEDTAVYYCARGEGSPGNWFDPWGQGTLVTVSS VL: DVVMTQSPGTLSLSPGERATLSCRASQSVPSSYLAWYQQKPGQAPRLLIYGASTRATGIPDRFSGSGSGTDFTLTISRLEPEDFAVYYCQHYDTSPRFGGGTKVDIK | 0.019 µg/mL and 0.017 µg/mL | 0.014 µg/mL and 0.011 µg/mL | 0.008 µg/mL and 0.009 µg/mL | 0.017 µg/mL and 0.016 µg/mL | – | –
11 | Fab of antibody 222 (Fab, V domains shown) VH: EVQLVESGGGLIQPGGSLRLSCAASGLTVSSNYMSWVRQAPGKGLEWVSVIYSGGSTFYADSVKGRFTISRDNSKNTLYLQMNSLGAEDTAVYYCARGEGSPGNWFDPWGQGTLVTVSS VL: DVVMTQSPGTLSLSPGERATLSCRASQSVPSSYLAWYQQKPGQAPRLLIYGASTRATGIPDRFSGSGSGTDFTLTISRLEPEDFAVYYCQHYDTSPRFGGGTKVDIK | – | – | – | – | 0.39 nM | –
12 | Fab of antibody 58 (Fab, V domains shown) VH: QVQLVESGGGLVQPGRSLRLSCAASGFTFDDYAMHWVRQPPGKGLEWVSGVSWNSGTIGYADSVKGRFIISRDNAKNSLYLQMNSLKAEDTALYYCAREVGGTFGVLISREGGLDYWGQGTLVTVSS VL: SYELTQPPSVSVAPGQTARITCGGNTIGSKSVHWYQQRPGQAPVLVVYDDSDRPSGIPERFSGSNSGNTATLTISRVEAGDEADYYCQVWDSSSDRVVFGGGTKLTVL | – | – | – | – | 0.55 nM | –
13 | antibody 175 (antibody, V domains shown, also called mAb 175) VH: EVQLVESGGGLIQPGGSLRLSCAASGLTVSRNYMSWVRQAPGKGLEWVSLIYSGGSTYYADSVKGRFTISRDNSKNTLYLQMNSLRAEDTAVYYCARDLRGEVWGQGTMVTVSS VL: not shown | 0.026 µg/mL | 0.575 µg/mL | 3.88 µg/mL | > 10 µg/mL | – | –
14 | Fab of antibody 175 (Fab, V domains shown) VH: EVQLVESGGGLIQPGGSLRLSCAASGLTVSRNYMSWVRQAPGKGLEWVSLIYSGGSTYYADSVKGRFTISRDNSKNTLYLQMNSLRAEDTAVYYCARDLRGEVWGQGTMVTVSS VL: not shown | – | – | – | – | 2.54 nM | –
15 | Fab of chimeric antibody 253H165L (Fab, V domains shown, also called 253H165L Fab) VH: not shown VL: DIVMTQSPGTLSLSPGERATLSCRASQSVRSSYLAWYQQKPGQAPRLLIYGASRRGTGIPDRFSGSGSGTDFTLTISRLEPEDFAVYYCQQYGSSPWTFGQGTKVEIK | – | – | – | – | – | % Occupancy [7]: 51.3%; Neutralisation IC50 [8]: 5.22 nM; Kd [1]: 5.02 nM
16 | chimeric antibody 253H165L, full-length IgG (antibody, V domains shown, also called 253H165L IgG) VH: not shown VL: DIVMTQSPGTLSLSPGERATLSCRASQSVRSSYLAWYQQKPGQAPRLLIYGASRRGTGIPDRFSGSGSGTDFTLTISRLEPEDFAVYYCQQYGSSPWTFGQGTKVEIK | – | – | – | – | – | % Occupancy [7]: 24.5%; Neutralisation IC50 [8]: 0.03 nM; Kd [1]: 0.09 nM
17 | antibody 318 (antibody, V domains shown, also called mAb 318) VH: QVQLVQSGPEVKKPGTSVKVSCKASGFTLTSSAMQWVRQARGQRLEWIGWIVVGSGNTNYAQKFQERVTITRDMSTSTAYMELSSLRSEDTAVYYCAAGRGYNSDFDYWGQGTLVTVSS VL: AIRMTQSPGTLSLSPGERATLSCRASQSVSSSYLAWYQQRPGQAPRLLIYGTSSRATGIPDRFSGSGSGTDFTLTISRLEPEDFAVYYCQQYGYSVYTFGQGTKVDIK | 0.029 µg/mL | 0.185 µg/mL | 0.083 µg/mL | 0.019 µg/mL | – | –
18 | Fab of antibody 318 (Fab, V domains shown) VH: QVQLVQSGPEVKKPGTSVKVSCKASGFTLTSSAMQWVRQARGQRLEWIGWIVVGSGNTNYAQKFQERVTITRDMSTSTAYMELSSLRSEDTAVYYCAAGRGYNSDFDYWGQGTLVTVSS VL: AIRMTQSPGTLSLSPGERATLSCRASQSVSSSYLAWYQQRPGQAPRLLIYGTSSRATGIPDRFSGSGSGTDFTLTISRLEPEDFAVYYCQQYGYSVYTFGQGTKVDIK | – | – | – | – | 1.99 nM | –
19 | antibody 278 (antibody, V domains shown, also called mAb 278) VH: QVQLVQSGAEVKKPGASVKVSCKASGYIFIRYGISWVRQAPGQGLEWMGWISANNGYTNYAQKLQGRVTMTTDTSTSTAYMELRSLRSDDTAVYYCARDGGILTGYLDYFDHWGQGTLVTVSS VL: DIQMTQSPSSLSASVGDRLTITCRASQSIASYLNWYQQKPGKAPKLLIYAASSLQSGVPSRFSGSGSGTDFTLTISSLQPEDFATYHCQQSYSTLGITFGPGTKVDIK | 0.014 µg/mL | 0.307 µg/mL | 0.245 µg/mL | 0.16 µg/mL | – | –
